Publication PMC3711432, “The Fanconi anemia associated protein FAAP24 uses two substrate specific binding surfaces for DNA recognition”

Assays:
[1] = molecular target: FAAP24 HhH V162A V162A (UniProt Q9BTP7); assay: EMSA; conditions: EMSA: 10 mM Tris pH 7.0, 10 mM NaCl (high salt: 50 mM NaHPO4, 400 mM NaCl), 5% glycerol, 1 mM DTT, 20 ug/ml BSA, on ice, gel at 4 C; NMR: 50 mM NaHPO4 pH 6.5 …
[2] = molecular target: T1, FAAP24 HhH domain (UniProt Q9BTP7 139-215); assay: NMR; 100 mM NaCl; EMSA: 10 mM Tris pH 7.0, 10 mM NaCl (high salt: 50 mM NaHPO4, 400 mM NaCl), 5% glycerol, 1 mM DTT, 20 ug/ml BSA, on ice, gel at 4 C; NMR: 50 mM NaHPO4 pH 6.5, 100 mM NaCl, 8% D2O, 298 K; conditions: protein: recombinant; tags: N-terminal His; fork: 10 bp, two 20 nt arms
T1 sequence: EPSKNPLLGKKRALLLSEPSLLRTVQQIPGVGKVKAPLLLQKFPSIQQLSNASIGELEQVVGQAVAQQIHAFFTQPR

[3] = molecular target: T1, FAAP24 HhH domain; assay: NMR; 100 mM NaCl; CSPs comparable with splayed arm; EMSA: 10 mM Tris pH 7.0, 10 mM NaCl (high salt: 50 mM NaHPO4, 400 mM NaCl), 5% glycerol, 1 mM DTT, 20 ug/ml BSA, on ice, gel at 4 C; NMR: 50 mM NaHPO4 pH 6.5, 100 mM NaCl, 8% D2O, 298 K; conditions: protein: recombinant; tags: N-terminal His; 5' overhang 20 nt
[4] = molecular target: T1, FAAP24 HhH domain; assay: EMSA; 10 mM NaCl; apparent Kd; EMSA: 10 mM Tris pH 7.0, 10 mM NaCl (high salt: 50 mM NaHPO4, 400 mM NaCl), 5% glycerol, 1 mM DTT, 20 ug/ml BSA, on ice, gel at 4 C; NMR: 50 mM NaHPO4 pH 6.5, 100 mM NaCl, 8% D2O, 298 K; conditions: protein: recombinant, tags: N-terminal His, label: radiolabeled
[5] = molecular target: T1, FAAP24 HhH domain; assay: NMR; 100 mM NaCl; CSPs in N-terminal linker; EMSA: 10 mM Tris pH 7.0, 10 mM NaCl (high salt: 50 mM NaHPO4, 400 mM NaCl), 5% glycerol, 1 mM DTT, 20 ug/ml BSA, on ice, gel at 4 C; NMR: 50 mM NaHPO4 pH 6.5, 100 mM NaCl, 8% D2O, 298 K; conditions: protein: recombinant; tags: N-terminal His; single strand
[6] = molecular target: T2, FAAP24 full length (UniProt Q9BTP7 1-215); assay: NMR; CSPs in hairpin 1, C-terminus and ERCC4-like domain; EMSA: 10 mM Tris pH 7.0, 10 mM NaCl (high salt: 50 mM NaHPO4, 400 mM NaCl), 5% glycerol, 1 mM DTT, 20 ug/ml BSA, on ice, gel at 4 C; NMR: 50 mM NaHPO4 pH 6.5, 100 mM NaCl, 8% D2O, 298 K; conditions: protein: recombinant; tags: N-terminal His; blunt
T2 sequence: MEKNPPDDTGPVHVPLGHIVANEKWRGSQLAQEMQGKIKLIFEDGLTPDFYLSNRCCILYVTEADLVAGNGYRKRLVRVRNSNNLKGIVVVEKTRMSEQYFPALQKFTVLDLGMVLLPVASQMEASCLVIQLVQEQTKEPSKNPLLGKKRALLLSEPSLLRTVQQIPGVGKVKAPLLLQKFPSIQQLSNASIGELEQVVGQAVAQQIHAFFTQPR

[7] = molecular target: T1, FAAP24 HhH domain; assay: NMR; 100 mM NaCl; CSPs in hairpin 1; EMSA: 10 mM Tris pH 7.0, 10 mM NaCl (high salt: 50 mM NaHPO4, 400 mM NaCl), 5% glycerol, 1 mM DTT, 20 ug/ml BSA, on ice, gel at 4 C; NMR: 50 mM NaHPO4 pH 6.5, 100 mM NaCl, 8% D2O, 298 K; conditions: protein: recombinant; tags: N-terminal His; blunt
[8] = molecular target: T3, FAAP24 HhH Q205A/Q206A (UniProt Q9BTP7 139-215, Q205A;Q206A); assay: EMSA; no significant effect on affinity vs wt; EMSA: 10 mM Tris pH 7.0, 10 mM NaCl (high salt: 50 mM NaHPO4, 400 mM NaCl), 5% glycerol, 1 mM DTT, 20 ug/ml BSA, on ice, gel at 4 C; NMR: 50 mM NaHPO4 pH 6.5, 100 mM NaCl, 8% D2O, 298 K; conditions: protein: recombinant, tags: N-terminal His, (radiolabeled) in EMSA, bubble: 10 bp stem, 10 unpaired nt
T3 sequence: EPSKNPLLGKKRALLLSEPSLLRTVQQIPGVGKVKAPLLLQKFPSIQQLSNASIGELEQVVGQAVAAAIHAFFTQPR

[9] = molecular target: T1, FAAP24 HhH domain; assay: EMSA; 10 mM NaCl; apparent Kd, multiple complexes; EMSA: 10 mM Tris pH 7.0, 10 mM NaCl (high salt: 50 mM NaHPO4, 400 mM NaCl), 5% glycerol, 1 mM DTT, 20 ug/ml BSA, on ice, gel at 4 C; NMR: 50 mM NaHPO4 pH 6.5, 100 mM NaCl, 8% D2O, 298 K; conditions: protein: recombinant, tags: N-terminal His, (radiolabeled) in EMSA, bubble: 10 bp stem, 10 unpaired nt
[10] = molecular target: T4, FAAP24 HhH K171A/K173A (UniProt Q9BTP7 139-215, K171A;K173A); assay: EMSA; EMSA: 10 mM Tris pH 7.0, 10 mM NaCl (high salt: 50 mM NaHPO4, 400 mM NaCl), 5% glycerol, 1 mM DTT, 20 ug/ml BSA, on ice, gel at 4 C; NMR: 50 mM NaHPO4 pH 6.5, 100 mM NaCl, 8% D2O, 298 K; conditions: protein: recombinant, tags: N-terminal His, (radiolabeled) in EMSA, bubble: 10 bp stem, 10 unpaired nt
T4 sequence: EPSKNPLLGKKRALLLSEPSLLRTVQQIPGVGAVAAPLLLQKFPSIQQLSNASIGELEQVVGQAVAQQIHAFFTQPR

[11] = molecular target: T5, FAAP24 HhH R161A (UniProt Q9BTP7 139-215, R161A); assay: as above; conditions: protein: recombinant, tags: N-terminal His, (radiolabeled) in EMSA, bubble: 10 bp stem, 10 unpaired nt
T5 sequence: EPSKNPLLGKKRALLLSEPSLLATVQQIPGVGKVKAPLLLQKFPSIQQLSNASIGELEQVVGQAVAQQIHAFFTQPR

[12] = molecular target: T6, FAAP24 HhH K173A (UniProt Q9BTP7 139-215, K173A); assay: as above; conditions: protein: recombinant, tags: N-terminal His, (radiolabeled) in EMSA, bubble: 10 bp stem, 10 unpaired nt
T6 sequence: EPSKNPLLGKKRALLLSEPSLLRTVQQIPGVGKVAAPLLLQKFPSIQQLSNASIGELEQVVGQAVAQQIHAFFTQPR

“GGGCGGCGGGTTTTTTTTTTGGCGGGGCGG / CCGCCCCGCCTTTTTTTTTTCCCGCCGCCC [B10 bubble]” showed a binding signal (fold decrease in affinity vs wt) [1] of 2.

B1: splayed arm with 20 nt arms (mixed)
DNA 1: GGGCGGCGGGCGGATAGATTGAAATCTTAG
DNA 2: GATTCTAAAGTTAGATAGGCCCCGCCGCCC
B1: binds [2].

B2: 5' extension (mixed)
DNA: GATTCTAAAGTTAGATAGGCCCCGCCGCCC
?: GGGCGGCGGG
B2: binds [3].

TGCGAATTCATATGCAATATTCAGTGGCTGAGCTACTGG (ssDNA) [ss39] showed a Kd ([4]; single strand) of 7.8 ± 0.4 µM.

B3: ds30 (dsDNA)
DNA 1: GGGCGGCGGGTTTTTTTTTTGGCGGGGCGG
DNA 2: CCGCCCCGCCAAAAAAAAAACCCGCCGCCC
With B3 the Kd ([4]; blunt) was 9.1 ± 0.9 µM.

TTTTTTTTTTTTTTTTTTTT (ssDNA) [ss20 (dT20)]: binds [5].

B4: ds10 (dsDNA)
DNA 1: GGGCGGCGGG
DNA 2: CCCGCCGCCC
B4: binds [6]; binds [7].

B5: B10 bubble (mixed)
DNA 1: GGGCGGCGGGTTTTTTTTTTGGCGGGGCGG
DNA 2: CCGCCCCGCCTTTTTTTTTTCCCGCCGCCC
In the case of B5, the binding result [8] is reported as “binds”, the Kd [9] is reported as 1.2 ± 0.2 µM and the binding signal [10] is reported as 4 fold decrease in affinity vs wt. The binding signal [11] was 2 fold decrease in affinity vs wt and the binding signal [12] was 3 fold decrease in affinity vs wt.
